Source: IntAct's records for PubMed 22579247

B1: Abscisic acid receptor PYL3 (Arabidopsis thaliana (Mouse-ear cress)), Q9SSM7 (parent)
chain: MNLAPIHDPSSSSTTTTSSSTPYGLTKDEFSTLDSIIRTHHTFPRSPNTCTSLIAHRVDAPAHAIWRFVRDFANPNKYKHFIKSCTIRVNGNGIKEIKVGTIREVSVVSGLPASTSVEILEVLDEEKRILSFRVLGGEHRLNNYRSVTSVNEFVVLEKDKKKRVYSVVLESYIVDIPQGNTEEDTRMFVDTVVKSNLQNLAVISTASPT

Variants of: B1
Settings: with HAB1, Q9CAJ0

Row | Variant | effect of a mutation on the interaction
1 | F81A;V202A;I203A | increasing interaction strength
2 | S195L | increasing interaction strength
